Data published in patent publication US20150031601A1.

Target: serum proteins
Assay: 90% serum, 30 kDa ultrafiltration, HPLC

**Q.** For HFCWNVCVYRNGVRVCHRRCN [SEQ ID NO: 98], which Protein binding (%) is on record?
**A.** 77%

**Q.** How did the Protein binding (%) turn out when KFCWNVCVYRNGVRVCHRRCN [SEQ ID NO: 100] was run?
**A.** 78%

**Q.** How did the Protein binding (%) turn out when MFCWNVCVYRNGVRVCHRRCN [SEQ ID NO: 101] was run?
**A.** 81%

**Q.** How did the Protein binding (%) turn out when GFCAKVCVYRNGVRSCYRRCN [SEQ ID NO: 120] was run?
**A.** 69%

**Q.** With GFCARVCVYRNGVRSCYRRCN [SEQ ID NO: 122] as the binder, how does the Protein binding (%) read?
**A.** 81%

**Q.** Which Protein binding (%) does the source give for GFCARVCVKRNGVRVCYRRCN [SEQ ID NO: 125] here?
**A.** 90%

**Q.** With GFCFYVCVKRNGVRVCHRRCN [SEQ ID NO: 137] as the binder, how does the Protein binding (%) read?
**A.** 86%

**Q.** For GFCGHVCVYRNGVRVCYRRCS [SEQ ID NO: 144], which Protein binding (%) is on record?
**A.** 68%

**Q.** GFCGHVCVYRNGVRRCYRRCN [SEQ ID NO: 155] was tested. Which Protein binding (%) did it give?
**A.** 83%

**Q.** Which Protein binding (%) does the source give for GFCWKVCVYRNGVRVCYRRCN [SEQ ID NO: 10] here?
**A.** 64%

**Q.** Which Protein binding (%) does the source give for GFCGRVCVYRNGVRRCYRRCN [SEQ ID NO: 170] here?
**A.** 87%

**Q.** How did the Protein binding (%) turn out when GFCGRVCVYRNGVRTCYRRCN [SEQ ID NO: 171] was run?
**A.** 84%

**Q.** GFCGRVCVRRNGVRVCYRRCN [SEQ ID NO: 172] was tested. Which Protein binding (%) did it give?
**A.** 88%

**Q.** With GFCTYVCVKRNGVRKCYRRCN [SEQ ID NO: 195] as the binder, how does the Protein binding (%) read?
**A.** 95%

**Q.** With GFCYKVCVYRNGVRSCYRRCN [SEQ ID NO: 206] as the binder, how does the Protein binding (%) read?
**A.** 86%

**Q.** How did the Protein binding (%) turn out when GFCYNVCVYRNGVRRCYRRCN [SEQ ID NO: 207] was run?
**A.** 91%

**Q.** Which Protein binding (%) does the source give for GFCYRVCVYRNGVRTCYRRCN [SEQ ID NO: 209] here?
**A.** 89%

**Q.** How did the Protein binding (%) turn out when GFCYRVCVYRNGVRVCHRRCN [SEQ ID NO: 210] was run?
**A.** 89%

**Q.** With GFCYRVCVYRNGVRVCSRRCN [SEQ ID NO: 211] as the binder, how does the Protein binding (%) read?
**A.** 96%

**Q.** Which Protein binding (%) does the source give for GFCWHVCVYRNGARSCYRRCN [SEQ ID NO: 213] here?
**A.** 95%

**Q.** GFCWNVCVYRNGVRVCYRRCN [SEQ ID NO: 11] was tested. Which Protein binding (%) did it give?
**A.** 73%

**Q.** How did the Protein binding (%) turn out when GFCWHVCARRNGVRVCYRRCN [SEQ ID NO: 218] was run?
**A.** 99%

**Q.** For GFCWHVCHYRNSVRVCYRRCN [SEQ ID NO: 219], which Protein binding (%) is on record?
**A.** 99%

**Q.** GFCWNVCVYRNKVRVCHRRCN [SEQ ID NO: 227] was tested. Which Protein binding (%) did it give?
**A.** 80%

**Q.** With GFCWNVCVYRNRVRVCHRRCN [SEQ ID NO: 228] as the binder, how does the Protein binding (%) read?
**A.** 86%

**Q.** Which Protein binding (%) does the source give for GFCWNVCVYRNYVRVCHRRCN [SEQ ID NO: 229] here?
**A.** 91%

**Q.** GFCWNVCVYRAGVRVCHRRCN [SEQ ID NO: 230] was tested. Which Protein binding (%) did it give?
**A.** 71%

**Q.** GFCWNVCVYRGGVRVCHRRCN [SEQ ID NO: 231] was tested. Which Protein binding (%) did it give?
**A.** 66%

**Q.** How did the Protein binding (%) turn out when GFCWNVCVYRHGVRVCHRRCN [SEQ ID NO: 232] was run?
**A.** 85%

**Q.** With GFCWNVCVYRQGVRVCHRRCN [SEQ ID NO: 233] as the binder, how does the Protein binding (%) read?
**A.** 78%

**Q.** With GFCWNVCVYRRGVRVCHRRCN [SEQ ID NO: 234] as the binder, how does the Protein binding (%) read?
**A.** 86%

**Q.** How did the Protein binding (%) turn out when GFCWYGCVYRNGVRVCYRRCN [SEQ ID NO: 15] was run?
**A.** 96%

**Q.** Which Protein binding (%) does the source give for GFCWNVCVYRNGARVCHRRCN [SEQ ID NO: 235] here?
**A.** 64%

**Q.** GFCWNVCVYRNGHRVCHRRCN [SEQ ID NO: 237] was tested. Which Protein binding (%) did it give?
**A.** 40%

**Q.** For GFCWNVCVYRNGRRVCHRRCN [SEQ ID NO: 239], which Protein binding (%) is on record?
**A.** 65%

**Q.** For GFCWNVCVYRNGYRVCHRRCN [SEQ ID NO: 242], which Protein binding (%) is on record?
**A.** 83%

**Q.** Which Protein binding (%) does the source give for GFCWNVCVYRNGVRFCHRRCN [SEQ ID NO: 245] here?
**A.** 85%

**Q.** Which Protein binding (%) does the source give for GFCWNVCVYRNGVRGCHRRCN [SEQ ID NO: 246] here?
**A.** 79%

**Q.** Which Protein binding (%) does the source give for GFCWNVCVYRNGVRICHRRCN [SEQ ID NO: 248] here?
**A.** 58%

**Q.** With GFCWNVCVYRNGVRLCHRRCN [SEQ ID NO: 249] as the binder, how does the Protein binding (%) read?
**A.** 83%

**Q.** GFCWNVCVYRNGVRNCHRRCN [SEQ ID NO: 251] was tested. Which Protein binding (%) did it give?
**A.** 71%

**Q.** Which Protein binding (%) does the source give for GFCWNVCVYRNGVRRCHRRCN [SEQ ID NO: 252] here?
**A.** 76%

**Q.** With GFCWYSCVYRNGVRVCYRRCN [SEQ ID NO: 19] as the binder, how does the Protein binding (%) read?
**A.** 89%

**Q.** GFCWNVCVYRNGVRWCHRRCN [SEQ ID NO: 253] was tested. Which Protein binding (%) did it give?
**A.** 94%

**Q.** For GFCWNVCVYRNGVRYCHRRCN [SEQ ID NO: 254], which Protein binding (%) is on record?
**A.** 77%

**Q.** How did the Protein binding (%) turn out when GFCWNACVKRNGVRVCYRRCN [SEQ ID NO: 258] was run?
**A.** 89%

**Q.** GFCWNFCVYRNGVRVCHRRCN [SEQ ID NO: 260] was tested. Which Protein binding (%) did it give?
**A.** 84%

**Q.** Which Protein binding (%) does the source give for GFCWNICVYRNGVRVCHRRCN [SEQ ID NO: 262] here?
**A.** 88%

**Q.** GFCWNLCVYRNGVRVCHRRCN [SEQ ID NO: 263] was tested. Which Protein binding (%) did it give?
**A.** 80%

**Q.** How did the Protein binding (%) turn out when GFCWNWCVYRNGVRVCHRRCN [SEQ ID NO: 267] was run?
**A.** 85%

**Q.** Which Protein binding (%) does the source give for GFCWNVCFYRNGVRVCHRRCN [SEQ ID NO: 272] here?
**A.** 74%

**Q.** How did the Protein binding (%) turn out when GFCWNVCLYRNGVRVCHRRCN [SEQ ID NO: 275] was run?
**A.** 80%

**Q.** Which Protein binding (%) does the source give for GFCWNVCVYRNGVRVCHRRCG [SEQ ID NO: 281] here?
**A.** 66%

**Q.** How did the Protein binding (%) turn out when GFCWYWCVYRNGVRVCYRRCN [SEQ ID NO: 20] was run?
**A.** 99%

**Q.** Which Protein binding (%) does the source give for GFCWNVCVYRNGVRVCHRRCH [SEQ ID NO: 282] here?
**A.** 82%

**Q.** For GFCWNVCVYRNGVRVCHRRCK [SEQ ID NO: 284], which Protein binding (%) is on record?
**A.** 72%

**Q.** With GFCWNVCVYRNGVRVCHRRCR [SEQ ID NO: 289] as the binder, how does the Protein binding (%) read?
**A.** 83%

**Q.** Which Protein binding (%) does the source give for GFCWNVCVYRNGVRVCHRRCW [SEQ ID NO: 291] here?
**A.** 99%

**Q.** GFCWNVCVARNGVRVCHRRCN [SEQ ID NO: 299] was tested. Which Protein binding (%) did it give?
**A.** 74%

**Q.** Which Protein binding (%) does the source give for GFCWNVCVHRNGVRVCHRRCN [SEQ ID NO: 303] here?
**A.** 43%

**Q.** With GFCWNVCVKRNGVRVCHRRCN [SEQ ID NO: 305] as the binder, how does the Protein binding (%) read?
**A.** 76%

**Q.** With GFCWNVCVRRNGVRVCHRRCN [SEQ ID NO: 308] as the binder, how does the Protein binding (%) read?
**A.** 94%

**Q.** With GFCWRVCVYRNGARKCYRRCN [SEQ ID NO: 313] as the binder, how does the Protein binding (%) read?
**A.** 98%

**Q.** For GFCWRVCVYRNGVRKCHRRCN [SEQ ID NO: 315], which Protein binding (%) is on record?
**A.** 93%
